{"source": "patent US20240034816A1", "key": {"[1]": {"biological_target": "human neonatal Fc receptor (FcRn) (human) (UniProt P55899)", "sequence (P55899 24-297 limits assumed, chain 1 of 2)": "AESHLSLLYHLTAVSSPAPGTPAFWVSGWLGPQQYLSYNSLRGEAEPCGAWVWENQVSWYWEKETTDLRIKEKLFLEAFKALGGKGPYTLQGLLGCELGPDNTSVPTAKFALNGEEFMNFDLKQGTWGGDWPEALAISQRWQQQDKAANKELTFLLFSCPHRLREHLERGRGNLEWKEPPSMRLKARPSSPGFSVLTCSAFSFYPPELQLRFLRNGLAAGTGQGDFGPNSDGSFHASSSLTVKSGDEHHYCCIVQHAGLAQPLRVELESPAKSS", "sequence (chain, as listed by the source limits assumed, chain 2 of 2)": "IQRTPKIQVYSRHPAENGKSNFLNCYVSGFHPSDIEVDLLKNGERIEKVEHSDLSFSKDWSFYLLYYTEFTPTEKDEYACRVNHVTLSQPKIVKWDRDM", "assay": "SPR, binding to huFcRn at pH 6.0"}, "[2]": {"biological_target": "human CD16a (human FcγRIIIA), V isoform (human) (UniProt P08637)", "sequence (P08637 17-208 F176V limits assumed)": "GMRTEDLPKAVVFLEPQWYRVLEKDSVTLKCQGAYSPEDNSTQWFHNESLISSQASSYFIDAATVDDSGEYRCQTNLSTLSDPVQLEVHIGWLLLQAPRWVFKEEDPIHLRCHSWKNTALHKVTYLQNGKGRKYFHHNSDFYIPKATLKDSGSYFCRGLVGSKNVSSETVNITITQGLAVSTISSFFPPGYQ", "assay": "SPR (Biacore T200), His-tagged huCD16a captured by anti-His antibody on CM5 chip, antibody injected at 5.8-3000 nmol/L, steady state fit"}}}
{"substance": "Adalimumab huIgG1 ctrl (antibody)", "values": [{"measurement": "Kd", "setting": "[1]", "value": 154, "unit": "nM"}, {"measurement": "Kd", "setting": "[2]", "value": 467, "unit": "nM"}]}
